Key:
[1] = molecular target: T1, cynomolgus monkey FcγRIIIaS extracellular domain, C-terminal His-tag (cynomolgus monkey, UniProt A3RFZ7 21-206 (rhesus entry)); test: SPR (BIACORE), antibody captured, FcγR analyte
T1 construct: also called cyno FcγRIIIaS; cynoFcγRIIIaS; not shown: His-tag added to C-terminus

[2] = molecular target: T2, human FcγRIIaH extracellular domain, C-terminal His-tag (human, UniProt P12318 34-217); test: SPR (BIACORE), antibody captured, FcγR analyte
T2 construct: also called human FcγRIIa (type H); FcgRIIaH; not shown: His-tag added to C-terminus
T2 sequence: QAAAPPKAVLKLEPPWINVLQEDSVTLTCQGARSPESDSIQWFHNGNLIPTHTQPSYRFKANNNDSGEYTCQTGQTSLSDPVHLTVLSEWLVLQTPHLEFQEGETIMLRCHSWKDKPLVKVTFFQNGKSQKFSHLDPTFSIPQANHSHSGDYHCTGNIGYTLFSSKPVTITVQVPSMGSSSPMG

[3] = molecular target: T3, human FcγRIIaR extracellular domain, C-terminal His-tag (human, UniProt P12318 34-217); test: SPR (BIACORE), antibody captured, FcγR analyte
T3 construct: also called human FcγRIIa (type R); FcgRIIaR; not shown: His-tag added to C-terminus
T3 chain: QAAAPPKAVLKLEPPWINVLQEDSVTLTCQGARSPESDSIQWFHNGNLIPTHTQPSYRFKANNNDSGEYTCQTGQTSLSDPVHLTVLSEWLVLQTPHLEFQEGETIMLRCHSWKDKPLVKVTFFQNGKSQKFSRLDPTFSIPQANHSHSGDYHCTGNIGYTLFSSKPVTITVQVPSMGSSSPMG

[4] = molecular target: T4, human FcγRIIIaV extracellular domain, C-terminal His-tag (human, UniProt P08637 17-208); test: SPR (BIACORE), antibody captured, FcγR analyte
T4 construct: also called FcgRIIIaV; not shown: His-tag added to C-terminus

[5] = molecular target: T5, cynomolgus monkey FcγRIIa1 extracellular domain, C-terminal His-tag (cynomolgus monkey); test: SPR (BIACORE); KD of parent SG1 / KD of variant;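 further: relative to parent M103205H795-SG1 carrying the SG1 human heavy chain constant region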
T5 construct: also called cyno FcγRIIa1; cynoFcgRIIa1; not shown: His-tag added to C-terminus
T5 chain: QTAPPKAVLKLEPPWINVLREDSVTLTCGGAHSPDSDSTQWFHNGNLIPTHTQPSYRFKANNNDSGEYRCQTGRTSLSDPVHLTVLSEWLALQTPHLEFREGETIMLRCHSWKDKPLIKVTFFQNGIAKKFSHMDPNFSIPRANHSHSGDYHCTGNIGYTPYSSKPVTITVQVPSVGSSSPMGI

[6] = molecular target: T6, cynomolgus monkey FcγRIIa2 extracellular domain, C-terminal His-tag (cynomolgus monkey); test: SPR (BIACORE); KD of parent SG1 / KD of variant;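 further: relative to parent M103205H795-SG1 carrying the SG1 human heavy chain constant region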
T6 construct: also called cyno FcγRIIa2; cynoFcgRIIa2; not shown: His-tag added to C-terminus
T6 chain: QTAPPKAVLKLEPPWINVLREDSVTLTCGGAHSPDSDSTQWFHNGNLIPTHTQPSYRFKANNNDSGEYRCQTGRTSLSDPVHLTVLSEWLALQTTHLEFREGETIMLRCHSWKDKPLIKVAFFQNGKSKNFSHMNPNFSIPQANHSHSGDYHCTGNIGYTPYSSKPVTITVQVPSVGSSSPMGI

[7] = molecular target: T7, cynomolgus monkey FcγRIIa3 extracellular domain, C-terminal His-tag (cynomolgus monkey); test: SPR (BIACORE); KD of parent SG1 / KD of variant;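 further: relative to parent M103205H795-SG1 carrying the SG1 human heavy chain constant region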
T7 construct: also called cyno FcγRIIa3; cynoFcgRIIa3; not shown: His-tag added to C-terminus
T7 chain: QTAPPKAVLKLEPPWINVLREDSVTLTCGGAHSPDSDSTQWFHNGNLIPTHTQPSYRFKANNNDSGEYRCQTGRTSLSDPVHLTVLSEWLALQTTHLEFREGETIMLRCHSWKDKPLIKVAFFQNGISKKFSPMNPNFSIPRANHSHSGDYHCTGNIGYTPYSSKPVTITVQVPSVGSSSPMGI

[8] = molecular target: T1, cynomolgus monkey FcγRIIIaS …; test: SPR (BIACORE); KD of parent SG1 / KD of variant;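 further: relative to parent M103205H795-SG1 carrying the SG1 human heavy chain constant region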
[9] = molecular target: T2, human FcγRIIaH extracellular domain, …; test: SPR (BIACORE); KD of parent SG1 / KD of variant
[10] = molecular target: T3, human FcγRIIaR extracellular domain, …; test: SPR (BIACORE); KD of parent SG1 / KD of variant
[11] = molecular target: T8, human FcγRIIb extracellular domain, C-terminal His-tag (human, UniProt P31994 43-217); test: SPR (BIACORE); KD of parent SG1 / KD of variant
T8 construct: also called humanFcgRIIb; not shown: His-tag added to C-terminus
T8 sequence: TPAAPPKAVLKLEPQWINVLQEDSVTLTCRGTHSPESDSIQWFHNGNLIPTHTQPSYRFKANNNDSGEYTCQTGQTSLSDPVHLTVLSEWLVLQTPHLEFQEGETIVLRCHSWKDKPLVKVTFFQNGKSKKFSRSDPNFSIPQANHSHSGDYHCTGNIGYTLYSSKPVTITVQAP

[12] = molecular target: T4, human FcγRIIIaV extracellular domain, …; test: SPR (BIACORE); KD of parent SG1 / KD of variant

T1 sequence (A3RFZ7 21-206): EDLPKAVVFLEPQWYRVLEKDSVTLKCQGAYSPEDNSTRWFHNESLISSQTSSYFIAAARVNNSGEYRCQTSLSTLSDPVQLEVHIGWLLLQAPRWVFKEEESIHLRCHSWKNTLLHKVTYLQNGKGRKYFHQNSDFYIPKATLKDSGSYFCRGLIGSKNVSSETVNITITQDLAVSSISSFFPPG
T4 sequence (P08637 17-208 F176V): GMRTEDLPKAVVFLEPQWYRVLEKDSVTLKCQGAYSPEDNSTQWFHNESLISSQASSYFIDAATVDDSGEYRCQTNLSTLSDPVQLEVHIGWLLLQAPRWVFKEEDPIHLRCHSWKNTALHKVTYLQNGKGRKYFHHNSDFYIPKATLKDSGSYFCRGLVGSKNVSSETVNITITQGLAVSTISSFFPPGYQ

- Kd [1]: 280 nM
- Kd [2]: 890 nM
- Kd [3]: 1000 nM
- Kd [4]: 620 nM
- KD fold (SG1 = 1) [5]: 1 fold
- KD fold (SG1 = 1) [6]: 1 fold
- KD fold (SG1 = 1) [7]: 1 fold
- KD fold (SG1 = 1) [8]: 1 fold
- KD fold (SG1 = 1) [9]: 1 fold
- KD fold (SG1 = 1) [10]: 1 fold
- KD fold (SG1 = 1) [11]: 1 fold
- KD fold (SG1 = 1) [12]: 1 fold
B1: MS_M103205H795-SG1/M103202L889-SK1 (antibody, human IgG1, kappa)
heavy: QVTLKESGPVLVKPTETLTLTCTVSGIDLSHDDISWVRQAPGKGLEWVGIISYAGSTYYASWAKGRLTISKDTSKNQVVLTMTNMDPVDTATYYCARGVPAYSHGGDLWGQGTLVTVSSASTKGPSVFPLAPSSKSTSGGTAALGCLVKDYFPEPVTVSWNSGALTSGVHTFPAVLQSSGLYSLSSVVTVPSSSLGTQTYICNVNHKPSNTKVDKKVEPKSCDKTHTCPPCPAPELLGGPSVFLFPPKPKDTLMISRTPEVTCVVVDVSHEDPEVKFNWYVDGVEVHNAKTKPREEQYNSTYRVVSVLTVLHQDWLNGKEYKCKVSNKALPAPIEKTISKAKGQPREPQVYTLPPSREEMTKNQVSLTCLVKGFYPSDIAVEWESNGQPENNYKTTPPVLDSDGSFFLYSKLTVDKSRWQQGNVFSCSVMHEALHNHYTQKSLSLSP
light: DIVMTQSPATLSLSPGERATLSCTSSQSVYHANWLSWFQQKPGQPPKLLIYWASTLAYGVPSRFSGSGSGTDFTLTISSLQPEDAATYYCAGGYGGGRYAFGQGTKVEIKRTVAAPSVFIFPPSDEQLKSGTASVVCLLNNFYPREAKVQWKVDNALQSGNSQESVTEQDSKDSTYSLSSTLTLSKADYEKHKVYACEVTHQGLSSPVTKSFNRGEC
notes: Parent antibody with SG1 human heavy chain constant region; also called MS1032LO06-SG1

From patent US20200317768A1 (published 2020)
